# Assay: soluble on expression in E. coli; label from the status in PepcDB or PDB records
row,Sequence,soluble on expression in E. coli
1,MNQTKTTTDDNKNSKPAETESTITVPEWITETINGGSFCHVDLETGTNGWASPPGNVFSLRSHNYFTATKQKSPGGDYLLSLAAVDWLKSTTKKLDHILSRPDNRVIHAFKTSQSRSFIFAVNFQVPGKEHYNLVFYFATQKPIPSDSLLHKFINTDEDSFRNERFKIVSNVVKGPWVVKAAAGKFGAFVAGKAMKCTYYRGDNYFEVDVDISSSAIMTALIRFMLGYVTYLMVDIGFVVEAQTAEELPERLIGGARICHMELSSSFLVDDDEKKSLQPRRRMMGAAEDNDDEI,soluble
2,MDNDGINADPMELEKFSQLAHHWWDPNSEFKPLHEINPLRLNYIDEIIGGLSEKTVIDVGCGGGILSESMAARGASVTGIDLSDKALKVAKLHLLESGNQVDYRKITVEALATERPRYYDVVTCMEMLEHVPDPASVIQSCARLVKSGGWVFFSTLNRNPKSYLYAIIGAEYILRLLPRGTHEYAKFIKPSELAHMARSAGLMESGIVGMTYNPITKVYALEADTSVNYIMAFRA,not soluble
3,MGSDKIHHHHHHVRVDLRHISDEKKLSYSDVLWQYVKQDFLWRINNAGLGNVLWLQKPYFATGEKLAFYYVYGSPGGRAEDNGTPFDVLRNIIIGNAGLNSHSDVVWTNAELSKQAAKVSANEPDASDMQPLIHTWNLSAMCDGGEVPFAVRLERLNEADAGVPMTKNIVFMNSFYGDADVCIFSPESRLGEQLFEIMDKLELVSDMKPYGDAYEILKRYSVSGRQIIDIFKVRAKNKPKTVSMHRLEQVYGYRSYAYMRRRWERYCKRLTRQQMAYANAGWEETLDLILDFLTPVWSAFCNDEIFYDDWMPELGRFLG,not soluble
4,MELKILVTGGNVFVPGRLNAHFSTVVYLEHKDRRIIIDPGNLSSMDELEEKFSELGISPDDITDVLFTHVHLDHIFNSVLFENATFYVHEVYKTKNYLSFGTIVGRIYSKVISSWKNVVLLKGEESLFDEKVKVFHTPWHAREHLSFLLDTENAGRVLITGDITPNRLSYYDIIKGYGSVQVKNFLDRVGRIDLLVFPHDAPLKPEVKK,not soluble
5,MAFLDNPTIILAHIRQSHVTSDDTGMCEMVLIDHDVDLEKIHPPSMPGDSGSEIQGSNGETQGYVYAQSVDITSSWDFGIRRRSNTAQRLERLRKERQNQIKCKNIQWKERNSKQSAQELKSLFEKKSLKEKPPISGKQSILSVRLEQCPLQLNNPFNEYSKFDGKGHVGTTATKKIDVYLPLHSSQDRLLPMTVVTMASARVQDLIGLICWQYTSEGREPKLNDNVSAYCLHIAEDDGEVDTDFPPLDSNEPIHKFGFSTLALVEKYSSPGLTSKESLFVRINAAHGFSLIQVDNTKVTMKEILLKAVKRRKGSQKVSGSRADGVFEEDSQIDIATVQDMLSSHHYKSFKVSMIHRLRFTTDVQLGISGDKVEIDPVTNQKASTKFWIKQKPISIDSDLLCACDLAEEKSPSHAIFKLTYLSNHDYKHLYFESDAATVNEIVLKVNYILESRASTARADYFAQKQRKLNRRTSFSFQKEKKSGQQ,soluble
6,MLLMRRFAFLTSSVYFKYIPIYSQYHYSSQFPINMNPKKVAQLPVHNKSTLPPQEIIDLFKITFLEELYPKDQDNEKSPLTEQIQAVKSDLYNRDYNAAFNNDSKRIAYCCRWSPSRATSYASVFAHFPELLKIIRCEIDDKDSNVLCIGGGAGGELVALASIFTLSRDFSSKFASALKIDNEVNKKPRNLNIQLVDIADWSTVVEKLTATIKSKWLYGDSEAESFNVNFTHKDCLQMTEPQDIKIYQGLDLITLLFTTNELFTQKKVESIKFLQRLNENCAPGCHLLILESAGSYSHITINNKKFPIQFLIDTILVGNRKDKGTTGPWSLVSENDSIWYRMDPKLDYSIPLENMRFFYRLYVKN,not soluble
7,MGSDKIHHHHHHMDAIVNTVNCVGVMGKGIALQFKNKWPANYSAYEAACKAKQVRPGTMFVFDSGGLVKPNYIINFPTKDHWRGKSRVEFIRDGLVDLVAQVKRLGIRSIAIPPLGCGNGGLEWDEVRPLIEQAFAVLPDVEVRLFAPAGAPDPKSMEVKTSRPKMTAGRAAILKVLDTYRSLEYGLSRIEVQKLAYFLQEAGESLSLSFVKNQYGPYSDQLRHALNRMEGHFIRGLGDGVVDAEIEPLEDALAEAEQYVSASGHAALARHVERVANLIEGFQTPYGMELLATVHWVATHEPTAHSFDQVVSAVHAWNERKARIMQPAHVRAAWSRLDAQGWL,not soluble
8,MGSDKIHHHHHHMRTIDTIFSSEVNVPLYHYTGIGSLLGMANCKSVWASSISYMNDSKEIVHACETVENVLRARIVFGQKDEEHRFLEQLIEWTKSCSKVAHTMFVFSLSEKPSLLSQWRSYTPHGKGVSLEFSPNKVNEIARFTGMRIAKCVYDDREQEEIISILVEKLLVNFRQELPAMDITDKPPSQCYYDFINQYTSDIYQVLAIIKHGAFEEECEWRLISPHIPKFGDPRLKFREGASMLVPYIELPLGDKPFFRKIILGPSQHQNLNMSGLSMFMSNQGISNELLNCQIPYREW,not soluble
9,MESYLRLSEVDKQILHSHALMLDGLGNFFGSTHEVILHSLENLESSAIKVINGHFSNRKEGAPITDMALKMLSQVESEHDYAVKPYYNKNQKGVILKSSTIPVIGENDRIIGLICINMHLEMPLIDYLQDLLPSGQQNDMSQELKNSEHFSDNIDELITTSLTKVKQAVESDPNVSHLNQNKEIVIRLYDQGIFNLKDSVIKIADRLGISKNTIYLHIRNHKKEEA,not soluble
10,MSHKLPSATDKYYFEVLRNEEKSEMLKFLLESFRVDEPLNRASKISCEEIEKCLDGALDRALKTESSILARSQDTHEIVGCMLNSVWRRDESLCTPGEEDKDFEFHTIRKEVAMVAEILNELHESFWSLRPDQDVVLHFEISSVSVNHRRQGLASKFMNWTENKKFLDTFGATGIATEASSLANQALLAKRGYSTIATTLLDTKVDPDTGKPILVCDDGTDRVNLMFKTF,not soluble
11,MNRTLYTVLFHLGLPLVALRLWLRARKAPAYRQRIGERFASGLPAMQRDGIWVHAVSVGESIAAAPMIRALLVQYPQLPITVTCMTPTGSERIKALFANEPRIQYCYLPYDLPWAAGRFLDHVQPQLGIIMETELWPNHIHQCAKRAIPVVLANARLSERSARGYARFARLTQPMLAEMAWFAVQTEVEAQRFRDLGARAECVVVTGSIKFDLNIDPQLLERAAQLREQWQATQRPVWIAASTHAGEDESVLSAHRTLLASHPDALLILVPRHPERFDSVHALCQQQGFKTVRRSSAQAVTPDVAVLMGDTMGELLFLYALVDIAFVGGSLVPNGGHNLLEPAALAKPVLSGPHLFNFLEIAAMLRTAGALQEVSDATALATAVQRLIDQPQQARSMADAGLAVMKANQGALQRLLDGIERLMAKRRVAEDAERPERHAHAERRHDSAAALEHHHHHH,not soluble
12,SDPNKAEISRLEVLPQDLLGEIVAKIGAKYAEDYHNCILSCKELGASANDERVLKTLNLAPLVKKPLSCRKHLLIMKKCLANNNPDAHYIKGIIWYFNLDHCDVGLHHIGIAAN,soluble
13,MLGLKTSIIGRRVIYFQEITSTNEFAKTSYLEEGTVIVADKQTMGHGALNRKWESPEGGLWLSIVLSPKVPQKDLPKIVFLGAVGVVETLKEFSIDGRIKWPNDVLVNYKAIAGVLVEGKGDKIVLGIGLNVNNKVPNGATSMKLELGSEVPLLSVFRSLITNLDRLYLNFLKNPMDILNLVRDNMILGVRVKILGDGSFEGIAEDIDDFGRLIIRLDSGEVKKVIYGDVSLRFL,soluble
14,MGHHHHHHSHMYFVGCGYNAFPVGSEYADFPHMDDKQKDREIRKFRYIIHAEQNALTFRCQEIKPEERSMIFVTKCPCDECVPLIKGAGIKQIYAGDVDVGKKKADISYMRFGELEGVSKFTWQLNPSGAYGLEQNEPERRERDLSHRRKSSTRTRSCASESTKKACLHCRGTSRTFHCTSKIQPCSFRK,not soluble
15,SLNVLCNNPHTADCNNDAQVDRYFREGTTCLMSPACTSEGYASQHECQQACFVGGEDHSSEMHSSCLGDPPTSCAEGTDITYYDSDSKTCKVLAASCPSGENTFESEVECQVACGAPIEG,soluble
16,MEYHLRTKLNGNIAMTSCFHENSFLQCDRSLYKFIWVRHGALDVEVDHVVMHLEKEEMISLTPLHHVQIRGVDGEYLTFLFNSNFYCIYGHDSEVSCNGFLFNGSSRVMRLKLSPSQSARLDSIVDIFRGECGIQDNLQEEMLRIILKRFIITCTRIAREKFDVDPGRENMFDVIRQFYVLVDSHFKEKKQVQDYADMLCRSPKTISNLFSLYGLSSPLRVIHERVDAEAKRLLLYTGKSAKEISEILGFEDLATFSRFFKKMNKESLSEYRKREKRE,not soluble
